The test deals with T1, Qa-SNARE Vam3, full-length, wild-type (S. cerevisiae, UniProt Q12241 1-283).
T1 construct: Vam3, vacuolar Qa-SNARE, S. cerevisiae, full-length wild type with its transmembrane domain (residues 265-283); also called GST-Qa; source: isolated as described (Mima et al., 2008; Schwartz and Merz, 2009; Zucchi and Zick, 2011), reconstituted into proteoliposomes
T1 sequence (looked up): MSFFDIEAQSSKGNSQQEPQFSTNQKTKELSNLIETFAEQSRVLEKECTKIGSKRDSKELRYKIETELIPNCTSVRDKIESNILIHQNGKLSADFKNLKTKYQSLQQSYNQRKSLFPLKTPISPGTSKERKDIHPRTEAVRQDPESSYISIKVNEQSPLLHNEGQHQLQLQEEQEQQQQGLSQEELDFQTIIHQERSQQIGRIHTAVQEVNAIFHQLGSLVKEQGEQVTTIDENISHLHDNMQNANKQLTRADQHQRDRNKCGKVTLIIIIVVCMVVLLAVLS
Put plainly: co-IP; proteoliposomes with Ypt7 and R mixed with proteoliposomes with Ypt7, Qa and Qb, with or without 50 nM HOPS and 4 μM Qc, 33 min; solubilised in modified RIPA buffer with 5 μM GST-R; anti-Qa antibody and protein A magnetic beads, 4°C, 2 h; immunoblot with antibodies to R, Qa and Vps33. Conditions: both partners purified. (A western blot detects proteins with antibodies after separation by electrophoresis.)

B1: R-SNARE (Nyv1), full-length, wild-type (natural protein, S. cerevisiae, UniProt Q12255 1-253, looked up)
chain: MKRFNVSYVEVIKNGETISSCFQPFQKNENYGTITSANEQITPVIFHNLIMDMVLPKVVPIKGNKVTKMSMNLIDGFDCFYSTDDHDPKTVYVCFTLVDMPKILPIRILSGLQEYESNATNELLSSHVGQILDSFHEELVEYRNQTLNSSGNGQSSNGNGQNTISDIGDATEDQIKDVIQIMNDNIDKFLERQERVSLLVDKTSQLNSSSNKFRRKAVNIKEIMWWQKVKNITLLTFTIILFVSAAFMFFYLW
notes: Nyv1, vacuolar R-SNARE, S. cerevisiae, full-length wild type with its membrane anchor; source: isolated as described (Mima et al., 2008; Schwartz and Merz, 2009; Zucchi and Zick, 2011), buffer exchanged into β-octylglucoside, reconstituted into proteoliposomes
In the case of B1, the binding result is recorded as “binds”.

These data come from publication doi:10.1101/751404, “HOPS recognizes each SNARE, assembling ternary trans-complexes for sudden fusion upon engagement with the 4th SNARE” (bioRxiv, 2019).
